Biological target: T1, GFP-Mfn2 (UniProt O95140 1-757)
T1 construct: The construct was generated in the authors' laboratory; also called lentiviral GFP-Mfn2; GFP-tagged Mfn2; source: HLMVECs, lentiviral expression (pWPXL), in lysate
T1 sequence (looked up): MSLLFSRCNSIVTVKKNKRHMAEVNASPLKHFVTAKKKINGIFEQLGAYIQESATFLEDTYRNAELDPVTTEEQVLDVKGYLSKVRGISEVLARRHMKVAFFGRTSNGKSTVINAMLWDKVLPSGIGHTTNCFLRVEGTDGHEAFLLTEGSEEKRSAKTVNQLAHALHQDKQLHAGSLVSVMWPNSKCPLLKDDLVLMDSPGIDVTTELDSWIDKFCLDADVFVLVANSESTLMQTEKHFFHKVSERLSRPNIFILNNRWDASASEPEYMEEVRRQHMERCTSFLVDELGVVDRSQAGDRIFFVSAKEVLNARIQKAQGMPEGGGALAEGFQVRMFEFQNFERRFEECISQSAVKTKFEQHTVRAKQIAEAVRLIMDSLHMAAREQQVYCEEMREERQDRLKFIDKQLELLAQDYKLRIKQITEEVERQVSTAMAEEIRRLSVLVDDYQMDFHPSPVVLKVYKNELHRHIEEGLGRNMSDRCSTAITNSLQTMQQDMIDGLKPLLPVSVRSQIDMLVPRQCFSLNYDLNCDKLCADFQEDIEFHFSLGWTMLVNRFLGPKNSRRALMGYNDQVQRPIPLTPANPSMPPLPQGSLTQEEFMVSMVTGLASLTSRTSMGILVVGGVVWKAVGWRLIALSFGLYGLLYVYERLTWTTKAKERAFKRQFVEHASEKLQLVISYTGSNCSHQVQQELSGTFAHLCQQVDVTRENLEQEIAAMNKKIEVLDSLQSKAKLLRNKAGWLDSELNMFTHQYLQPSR
Test: co-IP; HLMVECs expressing GFP or GFP-Mfn2, with or without TNFα (10 ng/mL) for 6 h; GFP-Mfn2 immunoprecipitated with GFP-trap magnetic agarose, Western blot for β-catenin and Mfn2
Details: partners not purified

fold increase of the interaction after TNFα against basal: 6 fold
B1: β-catenin (natural protein, human (endogenous in HLMVECs), UniProt P35222 1-781, looked up)
chain: MATQADLMELDMAMEPDRKAAVSHWQQQSYLDSGIHSGATTTAPSLSGKGNPEEEDVDTSQVLYEWEQGFSQSFTQEQVADIDGQYAMTRAQRVRAAMFPETLDEGMQIPSTQFDAAHPTNVQRLAEPSQMLKHAVVNLINYQDDAELATRAIPELTKLLNDEDQVVVNKAAVMVHQLSKKEASRHAIMRSPQMVSAIVRTMQNTNDVETARCTAGTLHNLSHHREGLLAIFKSGGIPALVKMLGSPVDSVLFYAITTLHNLLLHQEGAKMAVRLAGGLQKMVALLNKTNVKFLAITTDCLQILAYGNQESKLIILASGGPQALVNIMRTYTYEKLLWTTSRVLKVLSVCSSNKPAIVEAGGMQALGLHLTDPSQRLVQNCLWTLRNLSDAATKQEGMEGLLGTLVQLLGSDDINVVTCAAGILSNLTCNNYKNKMMVCQVGGIEALVRTVLRAGDREDITEPAICALRHLTSRHQEAEMAQNAVRLHYGLPVVVKLLHPPSHWPLIKATVGLIRNLALCPANHAPLREQGAIPRLVQLLVRAHQDTQRRTSMGGTQQQFVEGVRMEEIVEGCTGALHILARDVHNRIVIRGLNTIPLFVQLLYSPIENIQRVAAGVLCELAQDKEAAEAIEAEGATAPLTELLHSRNEGVATYAAAVLFRMSEDKPQDYKKRLSVELTSSLFRTEPMAWNETADLGLDIGAQGEPLGYRQDDPSYRSFHSGGYGQDALGMDPMMEHEMGGHHPGADYPVDGLPDLGHAQDLMDGLPPGDSNQLAWFDTDL
notes: β-catenin, endogenous in human lung microvascular endothelial cells; also called beta-catenin; source: endogenous, HLMVEC lysate or fixed HLMVECs
